We go through 1 molecule from PMC9172071, “Peach fruit PpNAC1 activates PpFAD3-1 transcription to provide ω-3 fatty acids for the synthesis of short-chain flavor volatiles”.

This data set deals with GST-PpNAC1 (Prunus persica (peach), UniProt M5WG30 1-363). As to the kind of experiment: EMSA; LightShift Chemiluminescent EMSA kit (Thermo Fisher); buffer, salt, pH and temperature not stated (refers to previous study). To be noted: protein: recombinant; tags: GST (N-terminal, pGEX-4T-1); chain copies: 2; blunt. In general terms: In EMSA bound probe runs differently from free probe, usually more slowly.
Sequence of GST-PpNAC1 (M5WG30 entry or part of it): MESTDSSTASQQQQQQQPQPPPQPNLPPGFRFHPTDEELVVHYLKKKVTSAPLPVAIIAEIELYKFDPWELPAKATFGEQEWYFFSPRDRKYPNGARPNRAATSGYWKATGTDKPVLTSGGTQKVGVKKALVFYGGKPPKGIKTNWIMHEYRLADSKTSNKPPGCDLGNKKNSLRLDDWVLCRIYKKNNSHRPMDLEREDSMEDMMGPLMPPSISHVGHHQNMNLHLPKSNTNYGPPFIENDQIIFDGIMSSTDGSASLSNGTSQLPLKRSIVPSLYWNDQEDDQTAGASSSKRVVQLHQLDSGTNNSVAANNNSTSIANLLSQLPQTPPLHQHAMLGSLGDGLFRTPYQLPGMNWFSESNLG

B1: Mutant-Probe1 (dsDNA)
DNA 1: AACCCCGCAGCAGCGTGCACTTTACCTGGTG
DNA 2: CACCAGGTAAAGTGCACGCTGCTGCGGGGTT
Regarding B1, the binding result is listed as “no binding”.
